Target: T1, inactive apo-separase (separase^C2029S) (human, UniProt Q14674 1-2120, C2029S)
T1 construct: human separase, aa 1-2120, catalytic cysteine replaced with serine; AIL1 and the autocleavage sites are intact in this construct; also called apo-separase^C2029S; source: Sf9 (baculovirus), purified (StrepTactin, heparin, Superose 6)
Test: fluorescence polarisation; FlAsH-labelled MBP-SCC1 fragment as probe, inactive separase added; 25 mM HEPES pH 8.0, 100 mM NaCl, 0.1 mg/ml BSA, 0.01% NP40; 25°C; One Site-Total non-linear fit; three repeats
Details: both partners purified

T1 sequence (Q14674 whole entry C2029S, the tested form may be a part): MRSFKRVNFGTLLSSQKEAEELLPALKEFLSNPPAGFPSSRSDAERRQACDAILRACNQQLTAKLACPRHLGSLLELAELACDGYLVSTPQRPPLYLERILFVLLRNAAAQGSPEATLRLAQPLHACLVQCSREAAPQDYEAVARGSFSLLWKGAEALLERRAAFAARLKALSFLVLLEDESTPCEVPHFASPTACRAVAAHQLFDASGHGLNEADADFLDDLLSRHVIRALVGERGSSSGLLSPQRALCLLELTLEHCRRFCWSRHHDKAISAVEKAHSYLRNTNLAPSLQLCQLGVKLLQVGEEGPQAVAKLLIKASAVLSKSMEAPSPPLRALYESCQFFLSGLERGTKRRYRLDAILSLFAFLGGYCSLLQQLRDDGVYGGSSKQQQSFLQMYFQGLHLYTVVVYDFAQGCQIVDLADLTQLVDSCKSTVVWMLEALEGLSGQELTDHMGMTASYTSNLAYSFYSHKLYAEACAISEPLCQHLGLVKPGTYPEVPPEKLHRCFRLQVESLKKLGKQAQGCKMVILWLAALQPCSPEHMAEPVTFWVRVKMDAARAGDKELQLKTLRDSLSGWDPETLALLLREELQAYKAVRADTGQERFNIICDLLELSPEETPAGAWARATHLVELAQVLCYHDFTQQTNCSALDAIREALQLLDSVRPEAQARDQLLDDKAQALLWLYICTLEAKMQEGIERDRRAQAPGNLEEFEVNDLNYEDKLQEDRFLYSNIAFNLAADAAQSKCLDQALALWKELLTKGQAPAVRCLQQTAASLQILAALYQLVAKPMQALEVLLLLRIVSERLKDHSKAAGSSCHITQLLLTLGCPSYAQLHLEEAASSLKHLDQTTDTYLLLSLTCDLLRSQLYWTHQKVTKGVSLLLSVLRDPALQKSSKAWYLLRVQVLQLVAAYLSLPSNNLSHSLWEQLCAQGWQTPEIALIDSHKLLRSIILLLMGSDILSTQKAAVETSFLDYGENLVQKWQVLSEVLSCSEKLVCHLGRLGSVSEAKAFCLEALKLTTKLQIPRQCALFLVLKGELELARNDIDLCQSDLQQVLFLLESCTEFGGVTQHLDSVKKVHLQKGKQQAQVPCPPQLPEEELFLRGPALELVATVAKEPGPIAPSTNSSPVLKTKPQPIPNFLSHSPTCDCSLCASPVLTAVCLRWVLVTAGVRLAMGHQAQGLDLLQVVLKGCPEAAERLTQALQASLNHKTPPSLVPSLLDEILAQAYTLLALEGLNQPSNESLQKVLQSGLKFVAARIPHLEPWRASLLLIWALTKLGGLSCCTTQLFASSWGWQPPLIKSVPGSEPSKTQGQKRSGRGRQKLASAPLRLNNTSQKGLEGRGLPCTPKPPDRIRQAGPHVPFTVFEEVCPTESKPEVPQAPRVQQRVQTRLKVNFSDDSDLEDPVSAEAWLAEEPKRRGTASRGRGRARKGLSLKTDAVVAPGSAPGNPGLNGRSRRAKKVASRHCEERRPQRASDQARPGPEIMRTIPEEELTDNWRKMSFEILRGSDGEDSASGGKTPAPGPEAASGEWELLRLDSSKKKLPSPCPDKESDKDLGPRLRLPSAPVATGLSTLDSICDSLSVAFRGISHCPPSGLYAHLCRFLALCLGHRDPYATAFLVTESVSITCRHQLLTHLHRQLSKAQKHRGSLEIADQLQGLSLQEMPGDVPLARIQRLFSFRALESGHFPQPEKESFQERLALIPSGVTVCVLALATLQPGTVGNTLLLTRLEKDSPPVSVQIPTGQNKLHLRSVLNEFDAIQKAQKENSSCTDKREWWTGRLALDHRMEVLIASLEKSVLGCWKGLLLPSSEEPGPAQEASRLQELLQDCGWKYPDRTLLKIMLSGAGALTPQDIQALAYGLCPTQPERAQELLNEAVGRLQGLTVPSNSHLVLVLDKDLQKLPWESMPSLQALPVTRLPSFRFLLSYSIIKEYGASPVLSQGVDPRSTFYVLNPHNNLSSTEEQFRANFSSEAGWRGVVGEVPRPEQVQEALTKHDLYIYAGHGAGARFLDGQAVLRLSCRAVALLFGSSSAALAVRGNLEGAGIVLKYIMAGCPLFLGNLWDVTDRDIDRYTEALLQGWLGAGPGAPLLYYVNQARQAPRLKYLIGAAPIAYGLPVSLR

binding result: binds
B1: MBP-SCC1 (aa 350-550) with C-terminal tetracysteine motif, FlAsH-labelled (domain or fragment, human, UniProt O60216 350-550, looked up)
chain: TLDLAPPTKKLMMWKETGGVEKLFSLPAQPLWNNRLLKLFTRCLTPLVPEDLRKRRKGGEADNLDEFLKEFENPEVPREDQQQQHQQRDVIDEPIIEEPSRLQESVMEASRTNIDESAMPPPPPQGVKRKAGQIDPEPVMPPQQVEQMEIPPVELPPEEPPNICQLIPELELLPEKEKEKEKEKEDDEEEEDEDASGGDQD
modifications: FlAsH-EDT2 fluorescent dye on the C-terminal tetracysteine motif
notes: human SCC1/RAD21, aa 350-550 (holds cleavage site 2, R427); also called SCC1^350–550; SCC1 site 2 (aa 350-550); source: E. coli BL21 (DE3), purified (Hitrap MBP, Superdex 200); not shown: 6xHis-MBP, N-terminal, kept

Reference: doi:10.1101/2025.03.24.644901, “Substrate recognition by human separase” (bioRxiv, 2025)
